Assay: soluble fraction after stress (log2 fold change); higher = more stays soluble; pooled small domains, quantitative proteomics
Conditions: stress: 50 degC
In short: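 Pooled custom libraries of small protein domains were measured in a high-throughput format, with quantitative proteomics as the read-out. Each library was stressed at 50°C. Aggregation propensity is given as the base-two logarithm of the fold change in how much of each protein stays soluble after the stress. Higher values mean a larger share of the protein remains in solution.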

“HMTTPAAISKIKKLEEAKRLLATTTYSMKEIAVKLKYKSHTHFGMDFKNNTGMTPAEYRKAIKAKREKQMN” and “HMTTQERVSYSAFINDVETGRVAKVVISGYTIEGTRTNNSSFVTERPYGVDSNLSEVLMQNSVSIEGKA” are within 0.2 log units of each other in “soluble fraction (log2)” value: -0.0571 for the first, -0.129 for the second.

“HMTTQVNTVKIQLANGYEMTVLTSKTNVKEILEDNNIILENNEKVTPNIDEEISSNKTIKITDKSN” and “HMTTTSGLIKTIQTGRRKLGMDDETYRALLADVSGGKTSSKDLNAYQLKEVLRRMREAGFRS” are within 0.2 log units of each other in “soluble fraction (log2)” value: 0.146 for the first, 0.218 for the second.

Compared with “HMTVDAVALGRRVRHLRKQAGLTLDQLAERTGVSGSHLSLVENARREPRLSLVQRIAEVLGVPVEDL”, “HMTVGEKIQYYRKKIGLSQEELGQKMLLSRQTISLWEMDKTLPTVDNLLRLKEIFSVSIDELLSENEPK” is higher in “soluble fraction (log2)” value: -1.17 for the first, 0.013 for the second.

Going from “HMTVKNFNDLPGFKNENLAELKAMGITTISELAEALNDGGKIKEIIKNLSGVGPKTAEKWKDAIG” to “HMTVKVPDLRGKTLAEMQRILDDAGLKYEINDSTFSRTAIPGTVREVIPAPGSEVKLGRILFIAINGF”, the “soluble fraction (log2)” value falls from ≥ 0.62 to -0.914.

Going from “HMTVLIDEQSSDGLLKITVTANTAVKSITIADELLEDKEQLEDYLILVLNKAIARANQVNQTELDAVAK” to “HMTVPAGIVLSSIRQDGDVLHIRGTAQSTERLNFFRNSFSASWGSPAQNGKRKADPVTGLVDFTISLK”, the “soluble fraction (log2)” value falls from 0.317 to -0.677.

Going from “HMTVPMKILILEDEQRNAMRLIRLLNDIDTTFIIEGPLTNIKEAVDFFQSGKTTDLILADIRL” to “HMTVSADQTTADAVIKLIDAIGTVSKNSGSAISAARSGYDALTDAQKKLVTNYNKLTQAEQVFSSLS”, the “soluble fraction (log2)” value rises from -0.147 to 0.129.

First: HMTVSLTDVPFVPEILDRLERPELDVLLAILNGATNTFDLAAKTGRSRDELDEVLDRLTTLGLIER
Second: HMTVTLTTLRNGSTGAQVKTLQRLLSAMDYYNGETDGKFGISTAAAVKAFQRAKRLTVDGIVGKNTWTALL
The “soluble fraction (log2)” value of the first is higher: -0.214 for the first, -1.18 for the second.

First: HMTVTMADISQAYNEKRYLTTISLSNTYLTFAKPTTELLSIRYRTYFIIGKYAESLTEIAKL
Second: HMTVTTDITQYFLQENGLLNGPNARQLRQKIGETLNIGYTNGKQLLKRAQQFGLTRDQILTALKK
The “soluble fraction (log2)” value of the first is higher: -0.173 for the first, -0.481 for the second.

Going from “HMTVVIKVQASQLESWKSSAGTEIKAKLIAVEDEKTYLFVTETGKTIRATAAQLDESSVSRARKLAGL” to “HMTYGYFELKAKNLDSLKQFLKGIAQVESIEEENNGLKVFLKNELESEELSEKLAEAKIFVSHLAKKK”, the “soluble fraction (log2)” value rises from -1.03 to 0.0782.

First: HMTYKPAADFKPSDTSSLKEGMKVEHPKFGFGTVMKMEEVGTERKARINFADFGEKTLLLSFAKLKIHEN
Second: HMTYNEYPEKEMQDLIDKSISQQEQAASQYGYSLGDYVTARYGFQSESDFREYVQGLAEDYMKEKI
The “soluble fraction (log2)” value of the first is higher: 0.0858 for the first, -0.198 for the second.

First: HMTYQHQSIIHRRTRGAILTAAKELLAESGISGTNMIEIADRAQVSRASLYNHFRDKHEVFLALVES
Second: HMTYSAWIEKAYSELEKKGITEAELSDALDKRGINLEDLKLMGPDEAVKYQSEVEGVVLELSKSKE
The “soluble fraction (log2)” value of the first is lower: -0.677 for the first, -0.0868 for the second.

First: HMTYSEEEIERDLYVRGTLYQIGDLVENKIDGTSGEIVRRGPNYVQYSDGENFYKAFLHSIQEV
Second: HMTYTMVAYGSQGDAVRQLQSELNRHGYQLDEDGVFGKKTRAAVRDYQKKNSLRLDGIAGDETWGSLLA
The “soluble fraction (log2)” value of the first is lower: -0.106 for the first, 0.324 for the second.

First: HMTYTPRAGSLASQVIGFFRHNPDEELLLDDITDKFDATRGNIHTLLAEAVRFKLLARYRNDDGDYVYKPG
Second: HMVAADTVQVPDVTGKTVADAKQALISAGLQVGTVTAKDGKETANTILETSPAAGTSVDKGSKVNLVYSTG
The “soluble fraction (log2)” value of the first is lower: -2.97 for the first, -0.185 for the second.

Compared with “HMVAAITDLPVKSVNGRQMYYYVVRKGETVYSLTHTLGITHDRLVKANRSVEDGLRAGQILYFPVSEFG”, “HMVAELAEMAENKNITSAQLALAWILKQSENIIPIPGTKRIKYLNENIEAVNVDLSKEDVENIENLLRKYP” is higher in “soluble fraction (log2)” value: -1.42 for the first, -0.0297 for the second.

Compared with “HMVAGHLQEKNGQFYAVLSYKDTKGKRRTKWVPTGLMVRGNKKRAEAMLNDIRRKFVPPEQED”, “HMVAGPDEPLSDREQGVLDLLAEGLSNKAISKQLGISVATVKSHLSNIYGKLQAENRMQAVARARELGLM” is higher in “soluble fraction (log2)” value: 0.0995 for the first, ≥ 0.62 for the second.

First: HMVAISNTSGLAGVAYWIQSNIPKGIDIRKDNPGIVTIKNWIDEEYRKGRTTTISEEEMFKLVREYMPEL
Second: HMVAMGQRVVPLTHLSIDDVRRLLESTYGKDSGIEVTKPGTAAKGVIVTAPRTELDGIVALVKQA
The “soluble fraction (log2)” value of the first is lower: -1.77 for the first, 0.0987 for the second.

Compared with “HMVAMYLRVGISNGRRYLSIVQGYRDQVTKKVRHNTVKSLGYLDDLEKHYPDPIAHFKAVVEEMNKKQALE”, “HMVANDQILNQYGISDREAEIIGLLIEGLSNQQIAKQLYISPNTVKTHIKNIYAKVGVNNRLQLFSLLK” is higher in “soluble fraction (log2)” value: -0.847 for the first, -0.173 for the second.

Going from “HMVANLPFNYKVYAKKGKLYVVISYKDSNGKYKKKWIRTGLDEGTKKKEVNTVADQIAAEYYSSMRLE” to “HMVAQQINDFRSERDASTGTLKRPLFDTLRDVISSRAQAYVSATGKPVTVEDLDRIYQAVEAEAKQAL”, the “soluble fraction (log2)” value rises from -1.54 to 0.0781.

Going from “HMVDDELTARRRVNLRRIADELGGAAAVARKTQKSVQQISSMLNGTKSFGSKIARDIEPKLGLPLQSLDKE” to “HMVDDRPVTGTTLIREWQGRAYEVIVQAGHFEFQGQRYQSLSAIAKVITGTVWNGWAFFGLR”, the “soluble fraction (log2)” value falls from 0.128 to -0.524.

Compared with “HMVDDTGLPTVLISDGRLLERNLHRLHLDHTWLQRRLEENNIPSIQSLFLLTVDKQHQLYFLKK”, “HMVDGTPALTDLKKVSKPGRRHYTGSQEIPRVLNGLGISIVSTSKGIMTGAQARRQKVGGELLAFV” is higher in “soluble fraction (log2)” value: -1.21 for the first, 0.16 for the second.

“HMVDIIMDLLEAVAQARPADAFIKSLHIQYQERGGLSKKQLQGLYGKAAKTAGIPPGKLATLEAIILKRP” and “HMVDITPDLIRTLLERFGEYGVTKEHIEARIQRHIESILPAQVVQLRKTYNSLKDGMSQPSDWFDI” are within 0.2 log units of each other in “soluble fraction (log2)” value: -1.38 for the first, -1.26 for the second.

“HMVDLEINGRQTLQFVANKYGIPVEKLATDLNIPSDRFGEKLGRLRRQYAFTMNDVRKSILKNK” and “HMVDPELFIWVESSKEPVYHLAYKIELFVHSTDPQDDVPVHRWQVFVDAHNGNILDKFDEVR” are within 0.2 log units of each other in “soluble fraction (log2)” value: 0.00739 for the first, -0.159 for the second.

Going from “HMVDPRWETPDENLAEQIKSVMPVMWVYDREAKSFVERPAIDFSFSIFERTTLYIYDKDGNEIGFAR” to “HMVDQVDKDRFLEALTQLGGSAGNVRLRETLQWEEEVYVIIKDALVKSGTILTGRGRGGSVLLASA”, the “soluble fraction (log2)” value falls from -0.028 to -1.12.

Going from “HMVDSLTIGRRIRQLRTERGMTLEELAAAVGRAPSQLSMIENGRREPKLTLLQAIARALGSTLDALLE” to “HMVDVNLLKYYVMESGKSLTDVAAAIGVTPATLHRKMSGESDFYRKEMQDIASYLGLDRDTIDRIFF”, the “soluble fraction (log2)” value falls from -0.116 to -1.01.

Compared with “HMVEDIVLTDAQIEFVKQQAKNGLSAFQISEMIWPEMSVKRFSKQHVAVLDFLREYEPAYVHDSE”, “HMVEELDVQFIKLTVQGDHPWKNKKIRELSIPWDLLFVLIIRGDKSIIPNGKTTIKDGDIVVVSAPEYRG” is lower in “soluble fraction (log2)” value: 0.00709 for the first, -0.676 for the second.
